Laboratory results taken from US12129308 (Merck KGaA, dated 2024).
Where a chain is given by its changes, count along the chain named.

Legend:
activated human MMP13 [1] = target: T1, activated human MMP13 (human, UniProt P45452 104-471); test: cell-based or functional assay
bovine MMP13 = bovine MMP13 (bovine, UniProt O77656 104-471); test: cell-based or functional assay
activated rat MMP13 = activated rat MMP13 (rat, UniProt P23097 99-466); test: cell-based or functional assay
activated dog MMP13 = activated dog MMP13 (dog, UniProt P45452 104-471 (human entry)); test: cell-based or functional assay
activated human MMP13 [2] = target: T1, activated human MMP13; test: cell-based or functional assay; remark: listed apart in the source
cynomolgus MMP13 = cynomolgus MMP13 (cynomolgus, UniProt A0A2K5U988 104-471); test: cell-based or functional assay
[3] = target: T2, activated MMP13 (species not stated) (Homo sapiens (Human), UniProt P45452 104-471, Biotinylated in the TIMP-2 competition ELISA (sites not given). Activated form: pro-peptide removed.); test: TIMP-2 competition ELISA; Nanobody pre-incubated with 1.26 nM activated MMP13-biotin, binding to captured TIMP-2
T2 construct: campaign 4 ELISA; Probably human

B1: C010100691 (bispecific antibody)
chain: EVQLVESGGGLVQPGGSLRLSCAASGSIFSINAMGWYRQAPGKQRELVAAISSGGSTYYADSVKGRFTISRDNSKNTVYLQMNSLRPEDTAVYYCNAAVDASRGLPYELYYYWGQGTLVTVSSGGGGSGGGGSGGGGSGGGGSGGGGSGGGGSGGGGSEVQLVESGGGLVQPGGSLRLSCAASGRTFSSYTMGWFRQAPGKEREFVAAISWSGGRTYYADSVKGRFTISRDNSKNTVYLQMNSLRPEDTAVYYCAAYRRRRASSNRGLWDYWGQGTLVTVSS
- potency, human fluorogenic peptide assay (activated human MMP13 [1]): 0.484 nM

B2: C010100688 (bispecific antibody)
chain: EVQLVESGGGLVQPGGSLRLSCAASGSIFSINAMGWYRQAPGKQRELVAAISSGGSTYYADSVKGRFTISRDNSKNTVYLQMNSLRPEDTAVYYCNAAVDASRGLPYELYYYWGQGTLVTVSSGGGGSGGGGSGGGGSGGGGSGGGGSGGGGSGGGGSEVQLVESGGGLVQPGGSLRLSCAASGSTFIINVVRWYRRAPGKQRELVATISSGGNANYVDSVRGRFTISRDNSKNTVYLQMNSLRPEDTAVYYCNVPTTHYGGVYYGPYWGQGTLVTVSS
- potency, human fluorogenic peptide assay (activated human MMP13 [1]): 0.927 nM

B3: C0101PMP529G11 (VHH)
VHH: DVQLVESGGGLVQPGGSLRLSCAASGSIFRINAMGWYRQAPGKQRELVAAIISGGTTYYADSVKGRFTISRDNSKNTVYLQMNSLRPEDTAVYYCYADIGWPYVLDYDFWGQGTLVTVSS
notes: Profile 2 Nanobody
- IC50, bovine fluorogenic peptide assay (bovine MMP13): 20.1 nM
- IC50, rat fluorogenic peptide assay (activated rat MMP13): 80.6 nM
- IC50, dog fluorogenic peptide assay (activated dog MMP13): 39.1 nM
- IC50, human fluorogenic collagen assay (activated human MMP13 [2]): 17.9 nM
- IC50, human fluorogenic peptide assay (activated human MMP13 [2]): 10.3 nM
- IC50, cyno fluorogenic peptide assay (cynomolgus MMP13): 7.1 nM
- IC50 [3]: 7.9 nM

B4: C010100080 (bispecific antibody)
chain: EVQLVESGGGLVQPGGSLRLSCAASGRTFSSYAMGWFRQAPGKEREFVAAISWSGGSTYYADSVKGRFTISRDNSKNTVYLQMNSLRPEDTAVYYCTAALAVYGPNRYRYGPVGEYNYWGQGTLVTVSSGGGGSGGGGSGGGGSGGGGSGGGGSGGGGSGGGGSEVQLVESGGGSVQAGGSLRLSCAASGSTFSRYSMNWYRQAPGKQREFVAGISVGRITNYAVSVRGRFTISRDNAEGTGYLQMNSLKPEDTAVYYCNAGGLQGYWGLGTLVTVSSGAADYKDHDGDYKDHDIDYKDDDDKGAAHHHHHH
- potency, human fluorogenic peptide assay (activated human MMP13 [1]): 0.488 nM

B5: C0101PMP525C04 (VHH)
VHH: DVQLVESGGGLVQPGGSLRLSCAGSGSIFSGNAMGWYRQAPGKQRELVAAITSGGVTNYADSVKGRFTISRDNSKNTVYLQMNSLRPEDTAVYYCAADIRYPTGLVGDYWGQGTLVTVSS
notes: Profile 2 Nanobody
- IC50, bovine fluorogenic peptide assay (bovine MMP13): 108 nM
- IC50, rat fluorogenic peptide assay (activated rat MMP13): 157 nM
- IC50, dog fluorogenic peptide assay (activated dog MMP13): 90.8 nM
- IC50, human fluorogenic collagen assay (activated human MMP13 [2]): 90.5 nM
- IC50, human fluorogenic peptide assay (activated human MMP13 [2]): 58 nM
- IC50, cyno fluorogenic peptide assay (cynomolgus MMP13): 32.5 nM
- IC50 [3]: 36.2 nM

B6: C0101PMP080A01 (VHH)
VHH: EVQLVESGGGLVQPGGSLRLSCAASGFTLAYYSIGWFRQAPGKEREGVSCISSGIDGSTYYADSVKGRFTISRDNAKNTMYLQMNNLKPEDTGVYYCAADPSHYYSEYDCGYYGMDYWGKGTLVTVSS
- IC50, bovine fluorogenic peptide assay (bovine MMP13): 6.4 nM
- IC50, rat fluorogenic peptide assay (activated rat MMP13): 4.2 nM
- IC50, dog fluorogenic peptide assay (activated dog MMP13): 6 nM
- IC50, human fluorogenic collagen assay (activated human MMP13 [2]): 10.8 nM
- IC50, human fluorogenic peptide assay (activated human MMP13 [2]): 5.2 nM
- IC50, cyno fluorogenic peptide assay (cynomolgus MMP13): 2.9 nM

B7: C010100170 (VHH)
VHH: EVQLVESGGGLVQPGGSLRLSCAASGSIFSINAMGWYRQAPGKQRELVAAISSGGSTYYADSVKGRFTISRDNSKNTVYLQMNSLRPEDTAVYYCNAAVDASRGLPYELYYYWGQGTLVTVSS
- potency, human fluorogenic peptide assay (activated human MMP13 [1]): 0.608 nM

B8: C010100726 (bispecific antibody)
chain: EVQLVESGGGLVQPGGSLRLSCAASGRTFSSYAMGWFRQAPGKEREFVAAISWSGGSTYYADSVKGRFTISRDNSKNTVYLQMNSLRPEDTAVYYCTAALAVYGPSRYRYGPVGEYQYWGQGTLVTVSSGGGGSGGGGSGGGGSGGGGSGGGGSGGGGSGGGGSEVQLVESGGGLVQPGGSLRLSCAASGSTFSRYSMNWYRQAPGKQREFVAGISVGRITNYAVSVKGRFTISRDNSKNTVYLQMNSLRPEDTAVYYCNAGGLQGYWGQGTLVTVSS
- potency, human fluorogenic peptide assay (activated human MMP13 [1]): 0.0671 nM

B9: C010100727 (bispecific antibody)
chain: B8 chain with V242G
- potency, human fluorogenic peptide assay (activated human MMP13 [1]): 0.134 nM

B10: C0101PMP513C04 (VHH)
VHH: DVQLVESGGGLVQPGGSLRLSCAASGRTFSRYVMGWFRQAPGKEREFVAAINWSSGSTYYADSVKGRFTISRDNSKNTVYLQMNSLRPEDTAVYYCAADRRVYYDTYPNLRGYDYWGQGTLVTVSS
- IC50, bovine fluorogenic peptide assay (bovine MMP13): 48.7 nM
- IC50, rat fluorogenic peptide assay (activated rat MMP13): 16.2 nM
- IC50, dog fluorogenic peptide assay (activated dog MMP13): 35.2 nM
- IC50, human fluorogenic collagen assay (activated human MMP13 [2]): 18.1 nM
- IC50, human fluorogenic peptide assay (activated human MMP13 [2]): 7.7 nM
- IC50, cyno fluorogenic peptide assay (cynomolgus MMP13): 8 nM

B11: C0101PMP063F01 (VHH)
VHH: EVQLVESGGGLVQPGGSLRLSCSASTGIFRINTMGWHRQAPGKQRDLVATFTSDDNTKYADSVKGRFTISRDNAENTVYLQMNDLKPEDTAVYYCHATTVMYDSNSPDYWGQGTQVTVSS
notes: Profile 2 Nanobody
- IC50, bovine fluorogenic peptide assay (bovine MMP13): 191 nM
- IC50, rat fluorogenic peptide assay (activated rat MMP13): 20.2 nM
- IC50, dog fluorogenic peptide assay (activated dog MMP13): 73.9 nM
- IC50, human fluorogenic collagen assay (activated human MMP13 [2]): 134 nM
- IC50, human fluorogenic peptide assay (activated human MMP13 [2]): 82.4 nM
- IC50, cyno fluorogenic peptide assay (cynomolgus MMP13): 108 nM
- IC50 [3]: 177 nM

B12: C0101PMP520C04 (VHH)
VHH: DVQLVESGGGLVQPGGSLRLSCAASGRTFSSYAMGWFRQAPGKEREFVAAISWSGGSTYYSDSVKGRFTISRDNSKNTVYLQMNSLRPEDTAVYYCTAARGGVAGTDGPLGDYNYWGQGTLVTVSS
notes: Profile 2 Nanobody
- IC50, bovine fluorogenic peptide assay (bovine MMP13): 27.9 nM
- IC50, rat fluorogenic peptide assay (activated rat MMP13): 5.6 nM
- IC50, dog fluorogenic peptide assay (activated dog MMP13): 10.5 nM
- IC50, human fluorogenic collagen assay (activated human MMP13 [2]): 31.5 nM
- IC50, human fluorogenic peptide assay (activated human MMP13 [2]): 13.7 nM
- IC50, cyno fluorogenic peptide assay (cynomolgus MMP13): 32.5 nM
- IC50 [3]: 8 nM

B13: C0101PMP059F06 (VHH)
VHH: EVQLVESEGGTVEPGESLRLACAAPGPGIRTNFMAWYRQAPEKEREMVASISRDGSTHYADSVKGRFTISSDNATSTFYLQMNSLQVEDTAVYYCATDPHILHNDRAGAFLVEDYDHWGQGTQVTVSS
notes: Profile 2 Nanobody
- IC50, bovine fluorogenic peptide assay (bovine MMP13): 108 nM
- IC50, rat fluorogenic peptide assay (activated rat MMP13): 38.9 nM
- IC50, dog fluorogenic peptide assay (activated dog MMP13): 82.6 nM
- IC50, human fluorogenic collagen assay (activated human MMP13 [2]): 140 nM
- IC50, human fluorogenic peptide assay (activated human MMP13 [2]): 56.3 nM
- IC50, cyno fluorogenic peptide assay (cynomolgus MMP13): 48.5 nM
- IC50 [3]: 51.8 nM
